Series [1] addresses EcoPI Res subunit (wild type, untagged) (Escherichia coli). The experiment in a line: native MS; enzyme only, 10 µM, dialysed against 100 mM ammonium acetate pH 7.0; Q-TOF II modified for high-mass operation.
Series [2] has the same target. The experiment in a line: SEC-MALS; 0.5–1.0 mg/ml (1.25–2.5 µM) enzyme, Superdex 200, Standard Assay Buffer minus BSA (50 mM Tris–HCl pH 8.0, 50 mM KCl, 10 mM MgCl2, 1 mM DTT), room temperature; enzyme alone or with excess Hex-labelled specific 50-mer DNA, with or without 1 mM ATP. (Size exclusion chromatography separates by hydrodynamic size, large species first.)
The target in series [3] is PstII Mod subunit. Described as above.
The target in series [4] is PstII Res subunit. The series is described as above.
The target of series [5] is T1, EcoPI holoenzyme (Res1Mod2) (Escherichia coli, UniProt P08764;P08763 1-970;1-646). The experiment in a line: native MS; no ATP; 1:1 complex 288.1 kDa; SEC-MALS: 50 mM Tris-HCl pH 8.0, 50 mM KCl, 10 mM MgCl2, 1 mM DTT, 0.1 mg/ml BSA (Standard Assay Buffer), 20 C; native MS: volatile ammonium acetate buffer, enzyme:DNA 1:2. The note with it: protein: recombinant; tags: none; copies: 1;2.

In series [6] the target is T1, EcoPI holoenzyme (Res1Mod2). The experiment in a line: SEC-MALS; 10 mM Mg2+, no ATP; 1:1 Res1Mod2:DNA; SEC-MALS: 50 mM Tris-HCl pH 8.0, 50 mM KCl, 10 mM MgCl2, 1 mM DTT, 0.1 mg/ml BSA (Standard Assay Buffer), 20 C; native MS: volatile ammonium acetate buffer, enzyme:DNA 1:2. The note with it: protein: recombinant; tags: none; copies: 1;2; label: 5'-Hex (12C linker) on top strand.

Series [7] has as its target T2, EcoP15I Res subunit (wild type, untagged) (Escherichia coli, UniProt Q5ZND2 1-970).
T2 construct: Res (restriction) subunit of the Type III restriction endonuclease EcoP15I, Escherichia coli; Made only together with Mod from the natural operon; also called wt EcoP15I
T2 sequence (looked up): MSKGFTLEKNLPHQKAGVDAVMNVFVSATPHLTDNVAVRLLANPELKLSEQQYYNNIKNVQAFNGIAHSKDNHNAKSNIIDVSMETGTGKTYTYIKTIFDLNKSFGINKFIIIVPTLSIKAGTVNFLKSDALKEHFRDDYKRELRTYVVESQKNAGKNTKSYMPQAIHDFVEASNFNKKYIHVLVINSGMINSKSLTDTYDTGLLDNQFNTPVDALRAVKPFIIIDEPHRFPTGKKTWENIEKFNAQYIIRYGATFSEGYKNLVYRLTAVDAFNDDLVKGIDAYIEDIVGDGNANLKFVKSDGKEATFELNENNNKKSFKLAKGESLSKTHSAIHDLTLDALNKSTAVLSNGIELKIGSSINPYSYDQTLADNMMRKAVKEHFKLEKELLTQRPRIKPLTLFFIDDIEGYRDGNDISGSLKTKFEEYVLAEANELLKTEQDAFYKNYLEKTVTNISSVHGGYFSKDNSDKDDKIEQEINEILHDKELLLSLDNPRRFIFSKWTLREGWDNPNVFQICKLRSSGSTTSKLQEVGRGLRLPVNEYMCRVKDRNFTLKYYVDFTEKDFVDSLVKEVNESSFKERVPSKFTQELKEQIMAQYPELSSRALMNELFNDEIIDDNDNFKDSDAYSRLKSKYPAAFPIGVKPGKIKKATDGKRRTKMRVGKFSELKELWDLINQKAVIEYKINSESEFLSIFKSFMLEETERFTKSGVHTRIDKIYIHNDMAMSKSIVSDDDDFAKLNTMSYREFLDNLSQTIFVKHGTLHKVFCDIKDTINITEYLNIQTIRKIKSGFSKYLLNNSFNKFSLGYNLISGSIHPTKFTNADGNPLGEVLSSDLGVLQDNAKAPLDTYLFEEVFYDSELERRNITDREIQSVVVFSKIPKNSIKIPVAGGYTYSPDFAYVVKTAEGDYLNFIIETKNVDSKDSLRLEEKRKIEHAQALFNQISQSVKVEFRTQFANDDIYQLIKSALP
The experiment in a line: native MS; enzyme only, 10 µM, dialysed against 100 mM ammonium acetate pH 7.0; Q-TOF II modified for high-mass operation. As to conditions: both partners purified.

Series [8] has as its target T3, EcoP15I Res subunit with C-terminal Avi-tag, biotinylated (Escherichia coli, UniProt Q5ZND2 1-970, biotin on the Avi-tag (co-expressed biotin ligase)).
T3 construct: Res subunit of the Type III restriction endonuclease EcoP15I, Escherichia coli; also called biotinylated EcoP15I; bio-EcoP15I; not shown: Avi-tag, C-terminal, kept
T3 sequence (looked up): T2 sequence (looked up)
The description is as above. As to conditions: both partners purified.

Series [9] deals with the molecule itself. The experiment in a line: native MS; wt EcoP15I 5 µM with 10 µM 50-mer DNA (1:2), 2 mM magnesium acetate (4 mM MgOAc and 2 mM ATP where ATP was added), buffer-exchanged into 100 mM ammonium acetate; Synapt G2 HDMS.
Series [10] concerns the target T4, EcoP15I Res subunit R534A (Escherichia coli, UniProt Q5ZND2 1-970, R534A).
T4 construct: Res subunit of the Type III restriction endonuclease EcoP15I, Escherichia coli; mutated in Motif VI of the helicase, lacks ATPase activity; also called R534A EcoP15I; R534A P15I; source: purified identically to the wild-type (DEAE-Sepharose, heparin, Superdex 200), co-purified with Mod
T4 sequence (looked up): T2 sequence (looked up) with R534A
The experiment in a line: SEC-MALS; 0.5–1.0 mg/ml (1.25–2.5 µM) enzyme, Superdex 200, Standard Assay Buffer minus BSA (50 mM Tris–HCl pH 8.0, 50 mM KCl, 10 mM MgCl2, 1 mM DTT), room temperature; enzyme alone or with excess Hex-labelled specific 50-mer DNA, with or without 1 mM ATP. As to conditions: both partners purified.

Series [11] addresses T5, EcoP15I Res subunit (commercial enzyme from New England Biolabs) (Escherichia coli, UniProt Q5ZND2 1-970).
T5 construct: Res subunit of the Type III restriction endonuclease EcoP15I, Escherichia coli; also called EcoP15I NEB; commercially available EcoP15I; source: bought: NEB (catalogue no. R0646S)
T5 sequence (looked up): T2 sequence (looked up)
Described as above. The note with it: both partners purified.

Residue numbers refer to the chain shown, from its start. In names and notes the source's numbering stands.

As a reminder, the stoichiometry N is a count of units in the complex or per binding partner. Regarding EcoPI Mod subunit (untagged) (enzyme), the stoichiometry N in series [1] and in series [2] was 2 Mod per Res each time.

In the case of PstII Mod subunit (enzyme), the stoichiometry N in series [3] came out at 2; in [4], 2 Mod per Res.

B1: EcoPI specific 50-mer duplex (sDNA), native MS (dsDNA)
DNA 1: TGGCTTAGACCCAGCGCAGATACCAAAACTGTCCTTCTATTGACAATTCG
DNA 2: CGAATTGTCAATAGAAGGACAGTTTTGGTATCTGCGCTGGGTCTAAGCCA
As for B1, the binding result in [5] is listed as “binds”.

B2: EcoPI specific 50-mer duplex (sDNA), Hex (dsDNA)
DNA 1: B1 DNA 1
DNA 2: B1 DNA 2
Take B2: the binding result in series [6] is “binds”.

B3: EcoP15I Mod subunit (untagged) (enzyme, Escherichia coli, UniProt P12364 1-644, looked up)
chain: MKKETIFSEVETANSKQLAVLKANFPQCFDKNGAFIQEKLLEIIRASEVELSKESYSLNWLGKSYARLLANLPPKTLLAEDKTHNQQEENKNSQHLLIKGDNLEVLKHMVNAYAEKVKMIYIDPPYNTGKDGFVYNDDRKFTPEQLSELAGIDLDEAKRILEFTTKGSSSHSAWLTFIYPRLYIARELMREDGTIFISIDHNEFSQLKLVCDEIFGEQNHVGDLVWKNATDNNPSNIAVEHEYIIVYTKNKEQLISEWKSNISDVKNLLVNIGEEFASKYTGNELQEKYTQWFREHRSELWPLDRYKYIDKDGIYTGSQSVHNPGKEGYRYDIIHPKTKKPCKQPLMGYRFPLDTMDRLLSEEKIIFGDDENKIIELKVYAKDYKQKLSSVIHLDGRVATNELKELFPEMTQPFTNAKTIKLVEDLISFACDGEGIVLDFFAGSGTTAHTVFNLNNKNKTSYQFITVQLDEPTKDKSDAMKHGYNTIFDLTKERLIRASKKNRDQGFKVYQLMPDFRAKDESELTLSNHTFFDDVVLTPEQYDTLLTTWCLYDGSLLTTPIEDVDLGGYKAHLCDGRLYLIAPNFTSEALKALLQKVDSDKDFAPNKVVFYGSNFESAKQMELNEALKSYANKKSIELDLVVRN
notes: Mod (modification) subunit of the Type III restriction endonuclease EcoP15I, Escherichia coli; also called Mod2 (as dimer); source: with biotinylated Res: avidin resin, Mono-Q
In the case of B3, the “stoichiometry N” value worked out at 2 Mod per Res in series [7], 2 Mod per Res in [8] and 2 in series [9]. Further, in series [10], the binding result was “binds”.

B4: EcoP15I Mod subunit (commercial enzyme from New England Biolabs) (enzyme, Escherichia coli, UniProt P12364 1-644, looked up)
chain: B3 chain
notes: Mod subunit of the Type III restriction endonuclease EcoP15I, Escherichia coli; also called EcoP15I NEB; commercially available EcoP15I; source: bought: NEB (catalogue no. R0646S)
With B4, the “stoichiometry N” value in [11] turned out to be 2 Mod per Res.

The values above are taken from paper PMC4005696, “Type III restriction endonucleases are heterotrimeric: comprising one helicase–nuclease subunit and a dimeric methyltransferase that binds only one specific DNA” (Nucleic Acids Research, 2014).
